Experimental data: US20260159596A1 (SELECXINE, published 2026)
Substitutions are numbered along the chain they refer to.

T1: DR3 expressed on the cell surface (DR3 stable cell line) (human, UniProt Q93038 25-417)
T1 construct: whole, on cells; also called DR3 natural form; human DR3
T1 sequence (looked up): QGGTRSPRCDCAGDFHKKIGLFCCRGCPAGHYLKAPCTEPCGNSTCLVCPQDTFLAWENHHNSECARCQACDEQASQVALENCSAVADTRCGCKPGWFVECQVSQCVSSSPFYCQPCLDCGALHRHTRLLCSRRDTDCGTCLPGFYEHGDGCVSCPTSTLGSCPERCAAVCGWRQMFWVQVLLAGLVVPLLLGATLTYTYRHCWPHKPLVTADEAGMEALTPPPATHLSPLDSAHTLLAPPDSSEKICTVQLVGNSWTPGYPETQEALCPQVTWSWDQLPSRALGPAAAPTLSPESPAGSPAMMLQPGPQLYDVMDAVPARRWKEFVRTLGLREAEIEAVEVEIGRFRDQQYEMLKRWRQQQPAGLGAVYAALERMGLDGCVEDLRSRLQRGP

T2: TL1A (tumor necrosis factor-like ligand 1A), His tag (human, UniProt O95150 72-251)
T2 construct: also called TL1A His tag; TL1A-His tag; not shown: His tag
T2 sequence (looked up): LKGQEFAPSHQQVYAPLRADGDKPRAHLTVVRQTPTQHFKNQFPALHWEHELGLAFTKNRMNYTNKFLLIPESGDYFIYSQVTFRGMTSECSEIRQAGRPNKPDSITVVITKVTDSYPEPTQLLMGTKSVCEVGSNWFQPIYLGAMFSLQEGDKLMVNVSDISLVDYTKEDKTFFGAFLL

B1: anti-DR3 scFv clone 2-10 (phage display) (scFv, V domains shown)
VH: QVQLVQSGAEVKKPGASVKVSCKASGYTFTSYGISWVRQAPGQGLEWMGWISAYNGNTNYAQKLQGRVTMTTDTSTSTAYMELRSLRSDDTAVYYCASGPDYGMLDYWGQGTLVTVS
VL: EIVMTQSPSSLPASVGDRVTITCQASQDISNYLNWYQQKPGKAPKLLIYDASNLETGVPSRFSGSGSGTDFTFTISSPQPEDIATYYCQQYDNLPLTFGGGTKVEIK
B2: anti-DR3 2-10 monoclonal antibody (antibody, V domains shown)
VH: B1 VH
VL: B1 VL
notes: Human IgG (detected with anti-human IgG Fc); also called 2-10 mAb; clone 2-10
B3: anti-DR3 6-15 monoclonal antibody (antibody, V domains shown)
VH: QVQLVQSGGGLVQPGGSLRLSCAASGFTFSSYSMNWVRQAPGKGLEWVSYISSSSSTIYYADSVKGRFTISRDNAKNSLYLQMNSLRAEDTAVYYCARWDGYCSGGSCYSGMDYWGQGTLVTVS
VL: B1 VL with E1D, V3E, P12S, R18K, F71S, P78L
notes: Human IgG; also called 6-15 mAb; clone 6-15
B4: anti-DR3 scFv clone 6-15 (phage display) (scFv, V domains shown)
VH: B3 VH
VL: B1 VL with E1D, V3E, P12S, R18K, F71S, P78L
B5: anti-DR3 4-4 monoclonal antibody (subclass not stated) (antibody, V domains shown)
VH: EVQLVESGGGLVKPGGSLRLSCAASGFTFSDYYMSWIRQAPGKGLEWVSYISSSSSYTNYADSVKGRFTISRDNAKNSLYLQMNSLRAEDTAVYYCASNVDTAMVGAFDIWGQGTLVTVS
VL: DIEMTQSPSSVSASVGDTVTITCRASQHISNWLAWYQQKPGQAPKFLIYTASNLQSGVPSRFSGSGYGTDFTLTISGLQPEDFATYYCQQADSFPLTFGGGTKVDIK
notes: also called 4-4 mAb; clone 4-4
B6: clone 4-4 IgG2 monoclonal antibody (antibody, V domains shown)
VH: B5 VH
VL: B5 VL
notes: IgG2 subclass
B7: anti-DR3 scFv clone 4-4 (phage display) (scFv, V domains shown)
VH: B5 VH
VL: B5 VL
B8: clone 4-4 IgG1 monoclonal antibody (antibody, V domains shown)
VH: B5 VH
VL: B5 VL
notes: IgG1 subclass; also called anti-DR3 4-4 IgG1 antibody
B9: anti-DR3 4-4 IgG4 monoclonal antibody (antibody, V domains shown)
VH: EVQLVESGGGLVKPGGSLRLSCAASGFTFSDYYMSWIRQAPGKGLEWVSYISSSSSYTNYADSVKGRFTISRDNAKNSLYLQMNSLRAEDTAVYYCASNVDTAMVGAFDIWGQGTLVTVSS
VL: DIEMTQSPSSVSASVGDTVTITCRASQHISNWLAWYQQKPGQAPKFLIYTASNLQSGVPSRFSGSGYGTDFTLTISGLQPEDFATYYCQQADSFPLTFGGGTKVDIKR
notes: also called clone 4-4 IgG4; human 4-4 IgG4P mAb
B10: recombinant DR3 (DR3-His tag) (receptor, human, UniProt Q93038 25-199, looked up)
chain: QGGTRSPRCDCAGDFHKKIGLFCCRGCPAGHYLKAPCTEPCGNSTCLVCPQDTFLAWENHHNSECARCQACDEQASQVALENCSAVADTRCGCKPGWFVECQVSQCVSSSPFYCQPCLDCGALHRHTRLLCSRRDTDCGTCLPGFYEHGDGCVSCPTSTLGSCPERCAAVCGWRQ
notes: it is treated as the same reagent; also called rDR3; death receptor 3; not shown: His tag
B11: anti-DR3 3-18 monoclonal antibody (antibody, V domains shown)
VH: QVQLQQSGPGLVKPSETLSLTCTVSGGSISSSSYYWGWIRQPPGKGLEWIGSIYYSGSTYYNPSLKSRVTISVDTSKNQFSLKLSSVTAADTAVYYCARQVSGPLDYWGQGTLVTVS
VL: DIVMTQSPSSLSASVGDRVTITCRASQGIRNDLGWYQQKPGKAPKLLIYAASSLQSGVPSRFSGSGSGTDFTLTISSLQPEDFATYYCLQDYNYPRTFGQGTKVEIK
notes: Human IgG; also called 3-18 mAb; clone 3-18
B12: anti-DR3 scFv clone 3-18 (phage display) (scFv, V domains shown)
VH: B11 VH
VL: B11 VL

Assays:
[1] = target: B10; assay: phage ELISA of single scFv clones on recombinant DR3
[2] = target: B10; assay: SPR, Biacore T100, DR3-His tag immobilized on CM5 chip
Method: (§1) SPR was performed using monoclonal antibodies from the clones selected in Example 1. After immobilizing 10 μg/ml DR3-His tag on a CM5 chip, the binding specificity and binding strength were measured using Biacore T100 under the conditions of a contact time of 30 sec and a flow rate of […].

[3] = target: T1, DR3 expressed on the cell surface (DR3 …); assay: FACS on DR3 stable cell line, 2 ug/ml antibody, anti-human IgG PE
Method: FACS was performed using monoclonal antibodies from the clones selected in Example 1. Specifically, a DR3 stable cell line at a concentration of 0.2×10⁶ was mixed with 2 μg/ml monoclonal antibody and incubated at 4° C. for 30 minutes, and the degree of binding between the DR3 stable cell line and the monoclonal antibody was confirmed by FACS analysis using anti-human IgG PE. For each step, cells were washed once with 200 μl of PBS. Isotype control was used as a negative control.

[4] = target: B10; assay: ELISA, DR3-His tag on Ni plate, anti-human IgG Fc HRP
Method: The functionally best subclass of the anti-DR3 4-4 antibody identified as the best in Example 2 was analyzed. For this purpose, as anti-DR3 4-4 antibodies, clone 4-4 IgG1, clone 4-4 IgG2, and clone 4-4 IgG4 monoclonal antibodies were prepared according to IgG subclass, and ELISA was performed to compare the binding affinity to DR3. Specifically, 0.4 μg/ml DR3-His tag was put into and mixed with PBS, and then a Ni plate was coated with a total of 50 μl of the mixed solution. Thereafter, to prevent non-specific binding, the Ni plate was mixed with 200 μl of PBS consisting of 5% FBS and incubated at room temperature for 30 minutes, and incubated for 30 minutes by titrating the monoclonal antibody. The degree of binding between the coated DR3 and the monoclonal antibody was detected with anti-human IgG Fc HRP. The plate was washed five times with 250 μl of 0.1% Tween 20 at each step.

[5] = target: T2, TL1A (tumor necrosis factor-like ligand …); assay: SPR, Biacore T100, DR3-His tag immobilized on CM5 chip; TL1A as reference
Method: as §1

Row | Binder | binding result [1] | binding result [4] | other results
1 | B1 | binds | – | –
2 | B2 | – | – | binding result [2]: binds
3 | B3 | – | binds | binding result [3]: binds
4 | B4 | binds | – | –
5 | B5 | – | – | binding result [2]: binds; binding result [3]: binds
6 | B6 | – | binds | –
7 | B7 | binds | – | –
8 | B8 | – | binds | –
9 | B9 | – | binds | –
10 | B10 | – | – | binding result [5]: binds
11 | B11 | – | – | binding result [2]: binds
12 | B12 | binds | – | –
